Biological target: T1, Pleiotrophin, wild type (mature, residues 1 to 136) (human, UniProt P21246 33-168)
T1 sequence (looked up): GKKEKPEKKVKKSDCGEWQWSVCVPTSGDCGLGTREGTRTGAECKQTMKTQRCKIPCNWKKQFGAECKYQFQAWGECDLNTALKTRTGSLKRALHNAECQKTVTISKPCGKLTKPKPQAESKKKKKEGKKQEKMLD
Assay: NMR titration

Binder: GGGEDGDTDDDGDDDDDDRGSDGLSIHK [PTPRZ peptide (residues G1414 to K1441 of receptor type protein tyrosine phosphatase ζ)]
- Kd: ~30 µM

— paper PMC8631008 (FEBS letters, 2021)
